Reference: paper PMC3016346

Assays:
Test in all cases: two-hybrid; Matchmaker Gal4 system 3 in AH109; beta-galactosidase solution assay with ONPG on lysed cells from liquid culture; activity as percent of p53-TAg (100%); mean of at least three experiments
[1] = molecular target: Sesbania mosaic virus movement protein, Gal4 DNA-binding domain fusion (pGBK T7 MP) (Sesbania mosaic virus)
[2] = molecular target: SeMV MP CΔ38 deletion mutant, Gal4 DNA-binding domain fusion (pGBK T7) (Sesbania mosaic virus)
[3] = molecular target: SeMV MP NΔ49 deletion mutant, Gal4 DNA-binding domain fusion (pGBKT7 NΔ49) (Sesbania mosaic virus)

Substance | beta-galactosidase activity, percent of p53-TAg [1] [%] | beta-galactosidase activity, percent of p53-TAg [2] [%] | beta-galactosidase activity, percent of p53-TAg [3] [%]
Sesbania mosaic virus viral protein genome linked (VPg), Gal4 activation domain fusion (pGAD T7 VPg) (natural protein) | 95.5 | 83.1 | –
Sesbania mosaic virus coat protein (CP), Gal4 activation domain fusion (pGAD T7 CP) (natural protein) | 70 | – | –
Sesbania mosaic virus 10-kDa protein (P10), Gal4 activation domain fusion (pGAD T7 P10) (natural protein) | 97.1 | – | 14
